Reference: the nanobody polyreactivity screen of Harvey et al. (2022)

assay: yeast display, Sf9 membrane polyspecificity reagent, FACS + sequencing; frameworks hold sequencing errors
Method in brief: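 After 36–48 hours of galactose induction, yeast (Saccharomyces cerevisiae BJ5465) displaying a synthetic nanobody library were stained at 4 °C for 1 hour with 10% biotinylated, detergent-solubilized Sf9 membrane reagent. Streptavidin microbeads enriched the stained cells before FACS sorting into low and high (top ~1%) gates on anti-HA and streptavidin fluorescence. Each clone's polyreactivity label reflects its gate of origin.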

Sequence	polyreactivity (PSR sort gate)
QVQLVESGGGLVQAGGSLRLSCAASGFTFWTYAMGWYRQAPGKERELVAAISTSGGSTYYADSVKGRFTISRDNAKNTVYLQINSLKPEDTAVYYCAAYAIGEHFRARYGYWGQGTQVTVSS	high polyreactivity
QVQLVESGGGLVQAGGSLRLSCAASGFTFWTYAMGWYRQAPGKERELVAAITGIGGSTYYADSVKGRFTISRDNAKNTVYLQMNSLKPEDTAVYYCAARYQATYPSMGYWGQGTQVTVSS	low polyreactivity
QVQLVESGGGLVQAGGSLRLSCAASGFTFWVYAMGWYRQAPGKERELVADISSGGSTNYADSVKGRFTISRDNAKNTVYLQMNSLKPEDTAVYYCATYRARWTWYTRYDYWGQGTQVTVSS	high polyreactivity
QVQLVESGGGLVQAGGSLRLSCAASGFTFWYYAMGCYRQAPGKERELVPSISSIGGSTYYADSVKGRFTISRDNAKYTVYLQMNSLKPEDTAVYYCAARYKFLRGGVRRDYLGQGTQVTVSS	high polyreactivity
QVQLVESGGGLVQAGGSLRLSCAASGFTFWYYAMGWYRPAPGNERELVASISRTGGTTYYADSVKGRFTISRDNAKNTVDLQMTSLKPEDTAVYYCNARPKVYDREYDYWGQGTQVTVSS	high polyreactivity
QVQLVESGGGLVQAGGSLRLSCAASGFTFWYYAMGWYRQAPGKERELVAAITYNGDRTYYADSVKGRFTISRDNAKNTVYLQMNSLKPEDTAVYYCAAAFVSVRKRYGYWGQGTQVTVSS	high polyreactivity
QVQLVESGGGLVQAGGSLRLSCAASGFTFWYYAMGWYRQAPGKERELVASISSIGGSTYYADSVKGRFTISRDNAKNTVYLQMNSLKPEDTAVYYCAARYKFLRGGVRRDYWGQGTQVTVSS	high polyreactivity
QVQLVESGGGLVQAGGSLRLSCAASGFTFWYYTMGWYRQAPGKERELVAAITGRGGTTHYADSVKGRFTISRDNAKNTVYLQMNSLKPEDTAVYYCAARAYRPSLSVVRGGYWGQGTQVTVLS	high polyreactivity
QVQLVESGGGLVQAGGSLRLSCAASGFTFYAYAMGWYRQAPGKERELVAVISWSGGSTYYADSVKGRFTISRDNAKNTVYLQMNSLKPEDTAVYYCAADSLESYPDYEYDYWGQGTQVTVSS	low polyreactivity
QVQLVESGGGLVQAGGSLRLSCAASGFTFYAYVMGWYRQAPGKERELVAAISGSGTSTYYADSVKGRFTISRDNAKNTVYLQMNSLKPEDTAVYYCAADYYPWDLDDDYWGQGTQVTVSS	high polyreactivity
QVQLVESGGGLVQAGGSLRLSCAASGFTFYDNAMGWYRQAPGKERELVAAINWRSGSTYYADSVKGRFTISRDNAKNTVYLQMNSLKPEDTAVYYCAAGLVFHYYAPKSYYLGYDYWGQGTQVTVSS	low polyreactivity
QVQLVESGGGLVQAGGSLRLSCAASGFTFYDNAMGWYRQAPGKERELVAAISWGGGSTYYADSVKGRFTISRDNAKNTVYLQMNSLKPEDTAVYYCNVYYGRVLLGFYYWGQGTQVTVSS	low polyreactivity
QVQLVESGGGLVQAGGSLRLSCAASGFTFYEYAMGWYRQAPGKERELVAAINRRGGRTYYADSVKGRFTISRDNAKNTVYLQMNSLKPEDTAVYYCNTPVSDGGHYYSWGQGTQVTVSS	high polyreactivity
QVQLVESGGGLVQAGGSLRLSCAASGFTFYEYSMGWYRQAPGKERELVAAINWNGGRTYYADSVKGRFTISRDNAKNTVYLQMNSLKPEDTAVYYCAARVAPKTKIYRRYYWGQGTQVTVSS	high polyreactivity
QVQLVESGGGLVQAGGSLRLSCAASGFTFYFYAMGWYRQAPGKERELVAAITGGTSTYYADSVKGRFTISRDNAKNTVYFQRNSLKPEDTSVYYCAAGYLDVLWLLDLLQLYGYWGQGNQVTVSS	low polyreactivity
QVQLVESGGGLVQAGGSLRLSCAASGFTFYFYAMGWYRQAPGKERELVATITIGGRTNYADSVKGRFTISRDNAKNTVYLQMNSLKPEDTAVYYCAAAYLWISRYSGYDYWGQGTQVTVSS	high polyreactivity
QVQLVESGGGLVQAGGSLRLSCAASGFTFYFYAMGWYRQAPGKETELVAGISRGGSTTYADSVTGRFTISRDNAKNTVYLQRNSLKPHDTAVYYCAVGYDIVRYSYSPFYRYDYWGQGTQVTVSS	low polyreactivity
QVQLVESGGGLVQAGGSLRLSCAASGFTFYGNALGWYRQAPGKARELVAAISRSGGSTYYADSVKGRFTISRDNAKNTVYLQMNSLKPDDTAVYYCAVYVRKWYAVTDQYSGSDYWGQGTQVTVSS	high polyreactivity
QVQLVESGGGLVQAGGSLRLSCAASGFTFYGYAMGWYRQAPGKERELVAGISKNGGSTYYADSVKGRFTISRDNAKNTVYLQMNSLKPEDTAVYYCNKRSTLNTRRDYWGQGTQVTVSS	high polyreactivity
QVQLVESGGGLVQAGGSLRLSCAASGFTFYGYAMGWYRQAPGKERELVAGITSGGRTYYADSVKGRFTISRDNAKNTVYLQMNSLKPEDTAVYYCAARRITWGRFDYWGQGTQVTVSS	high polyreactivity
QVQLVESGGGLVQAGGSLRLSCAASGFTFYGYVMGWSRQAPGKERDLVAAITRGGNTYYADSVKGRITISRDNAKNTVYLQMNSLKPEDTAVYYCARDRSYWDKPRQRDGYWGQGTQVTVSS	low polyreactivity
QVQLVESGGGLVQAGGSLRLSCAASGFTFYHNAMGWYRQAPGKERELVAAISSSGDSTYYADSVKGRFTIARDNAKNTVYLQMNSLKPEDTAVYYCNDYFYYLSQYYYYWFNYDYWGQGTQVTVSS	low polyreactivity

Sequence	polyreactivity (PSR sort gate)
QVQLVESGGGLVQAGGSLRLSCAASGFTFYHNAMGWYRQATGKERELVATITARGGRTYYADSVKGRFTISRDNAKNTVYLQMNSLKPVDTAVYYCNVKASRGYTYEYDYWGQGTQVTVSS	high polyreactivity
QVQLVESGGGLVQAGGSLRLSCAASGFTFYIYAMGWYRQAPGKERELVASISARGGSTYYADSVKGRFTISRDNAKNTVYLQMNSLKPEDTAVYYCNALYNYAEIYGRGYWGQGTQVTVSS	high polyreactivity
QVQLVESGGGLVQAGGSLRLSCAASGFTFYKNTMGWYRQAPGKERELVAAISYRGGTYYADSVKGRFTISRDNAKNTVYLQMNSLKPQDTAVYYCNARYRGKYSSYGYWGQGTQVTVSS	high polyreactivity
QVQLVESGGGLVQAGGSLRLSCAASGFTFYKYVMGWYRPAPGKERELVAAITTSGGSTYYADSVKGRFTISRDNAKNTVYLQMNCLKPEDTAVYYCNARSLHTSEGDYWGQGTQVTVSS	low polyreactivity
QVQLVESGGGLVQAGGSLRLSCAASGFTFYLYAMGWYRQAPGKERELVAAISSRGGTTYYADSVKGRFTISRDNAKNTVYLQMNSLKPEDTAVYYCNVARVYHIYDYWGQGTQVTVSS	high polyreactivity
QVQLVESGGGLVQAGGSLRLSCAASGFTFYLYAMGWYRQAPGKERELVAAITYSAGSTYYADSVKGRFTISRDNAKNTVYLQMNSLKPEDTAVYYCAKRGHYRAWGGGGYWGQGTQVTVSS	low polyreactivity
QVQLVESGGGLVQAGGSLRLSCAASGFTFYNNAMGGYRQAPGKERELVAVITSNGGRTYYADSVKGRFTISRDNAKNTVYLQMNSLKPEDTAVYYCAKRGYGYGDGAYYYWGQGTQVTVSS	low polyreactivity
QVQLVESGGGLVQAGGSLRLSCAASGFTFYNNAMGWYRQAPGKERELVAGIARRGGSTSYADSVKGRFTISRDNAKNSVYLQMNSLKPEDTEVYYCAKQDYSPYYPYDYWGLGTQVTVSS	high polyreactivity
QVQLVESGGGLVQAGGSLRLSCAASGFTFYNYAKGWYIQAPGNERELVAAITSRGGSTYYADSVKGRFTISRDNAKNTVYLQMNSLKPEDTAVYYCAAGYVHYGWFELDYWGQGTQVTVSS	low polyreactivity
QVQLVESGGGLVQAGGSLRLSCAASGFTFYNYAMGWYRQAPGKERELVAAITSRGGSTYYADSVKGRFTISRDNAKNTVYLQMNSLKPEDTAVYYCNAVAKLYYWRYDYWGQGTQVTVSS	low polyreactivity
QVQLVESGGGLVQAGGSLRLSCAASGFTFYPNAMGWYRQAPGNERELVATITGSGGSTNYADSVKGRFTISRDTAKNTVYLHMNRLKPEDTAVYYCAADYAVYSFTEFNYWGQVTQVTVSS	high polyreactivity
QVQLVESGGGLVQAGGSLRLSCAASGFTFYPYAMGWYRQAPGKERELVASFTSAGGTNYADSVKGRFTISRDNAKNTVYLQMNSLKPEDTAVYYCAAKYRSRGPDYYFKSDYWGQGTQVTVSS	low polyreactivity
QVQLVESGGGLVQAGGSLRLSCAASGFTFYPYAMGWYRQAPGKERELVASITSAGGTNYADSVKGRFTISRDNAKNTVYLQMNSLKPEDTAVYYCAAKYRSRGPDYYFKSDYWGQGTQVTVSS	low polyreactivity
QVQLVESGGGLVQAGGSLRLSCAASGFTFYPYSMGWYRQAPGKERELVAAIRGSGGSTHYADSVKGRFTISRDNAKNTVYLQMNSLKPEDTAVYYCAARIRGYRQYGTYYYWGQGTQVTVSS	high polyreactivity
QVQLVESGGGLVQAGGSLRLSCAASGFTFYQYAMGWYRQAPGKERELVAAITWNGGSTFYADSVKGRFTISRDNAKNTVYLQMNSLKPEDTAVYYCAARQYFSSYYEYDYWGQGTQVTVSS	high polyreactivity
QVQLVESGGGLVQAGGSLRLSCAASGFTFYQYTMGRYRQAPGKERELVATITSDGGTNYADSVKGRFTISRDNAKNTVYLQMNSLKPEDTAVYYCARDYLSPYAVDYWGQGTQVTVSS	low polyreactivity
QVQLVESGGGLVQAGGSLRLSCAASGFTFYRNAMGWSRKAPGKERELVAAISTSGGSTHYADSVKGRFTISRDNAKNTVYLQMNSLKPEDTAVYYCAKRRSIRDEFGYWGQGTQVTVSS	high polyreactivity
QVQLVESGGGLVQAGGSLRLSCAASGFTFYRNAMGWYRQAPGKERELVAAISRGGRTYYADSVKGRFTISRDNAKNTVYLQMNSLKQEDTAVYYCAADFYIKYSEFDYWGQGTQVTVSS	high polyreactivity
QVQLVESGGGLVQAGGSLRLSCAASGFTFYRNAMGWYRQAPGKERELVAAITRRGGSTYYADSVKGRFTISRDNAKNTVYLQMISLKPEDTAVYYCSKSYRFPSVGPPGELDYWGQGTQVTVSS	high polyreactivity
QVQLVESGGGLVQAGGSLRLSCAASGFTFYRNDIGWYRQAPGKERELVAAITFSGGITYYADSVKGRFTISRDNAKNTVYLQMNSLKAEDTAVYYCAAEGVGAARVYQGGEYNYWGQGTQVTVSS	low polyreactivity
QVQLVESGGGLVQAGGSLRLSCAASGFTFYRNTMGWYRQAPGKERELVARIRSVGSTYYADSVKGRFTISRDNAKNTVFLQMNSLKREDTAVYYCAAGPVYDWRGGALRYYYWGQGTQVTVSS	high polyreactivity
